Test results from US20250369024A1, “Acyloin Condensation Reactions, Enzymes, and Products Thereof” (Mojia Biotech Pte. Ltd., priority 2023, published 2025).

Tests used:
AC440 = assay: Tolerance of 2HIB in AC440; format: cell-based, E. coli; details: M9-LB; cell density at 600 nm
Procedure: To check the tolerance of 2HIB, AC440 was grown in 5 mL of M9-LB supplemented with different concentration of 2HIB in 50 mL falcon tube, the cell density was monitored at 600 nm. The impact on growth could be observed at 25 g/L of 2HIB, while the AC440 is still able to grow and maintain its metabolic activity at the concentration of 2HIB at 75 g/L (FIG. 21), considering the cells will not suffer such high concentration of 2HIB at early stage, indicating AC440 is a good host for 2HIB production.

formate = assay: Screening of formate activation enzymes with acetone and formate using growing cultures (2HIB); format: cell-based, E. coli; details: 100 mM acetone and 20 mM formate; growing cells
Excerpt: Since formate activation is a required step for formate utilization, we further evaluated enzymes catalyzing this reaction. Acyl-CoA synthetase (ACS) enzymes are one of the three explored routes for formate activation, which can directly generate formyl-CoA from formate with the consumption of 2 ATP equivalents (ATP is converted to AMP). […] Therefore, ACS variants were further evaluated using the new established growing cell platform with ApbHACS overexpression. In this platform, formyl-CoA generated through formate activation enzymes is further condensed with non-toxic substrate acetone to produce 2-hydroxyisobutyrate (2HIB) (FIG. 23C).
The screening of a larger group of formate activation enzymes in actively growing cells was conducted using the M9-LB medium contains 6.78 g/L Na2HPO4, 3 g/L KH2PO4, 1 g/L NH4Cl, 0.5 g/L NaCl, 2 mM MgSO4, 100 μM CaCl2), 15 μM thiamine-HCl, 10 g/L tryptone, and 5 g/L yeast extract additionally supplemented with the micronutrient solution of Neidhardt^68. […] The cells were pelleted by centrifugation and the supernatant analyzed by HPLC as described below. The expected product 2-hydroxyisobutyric acid was detected in the media indicating the performance of corresponding formate activation enzymes. […]

2-hydroxyisobutyryl-CoA = assay: In vitro purified enzyme isobutene glycol production from acetone and formate, ACR comparison; format: biochemical; details: 1 μM ACR and 1 μM FucO; 50 mM formate and 200 mM acetone
Procedure: The enzymes acyl-CoA transferase CaAbfT, HACS ApbHACS, acyl-CoA reductase ACR (LmACR, BmACDH, PtACDH, RpPduP, StEutE), and NADH-dependent alcohol dehydrogenase FucO were overexpressed and purified as described above. In vitro purified enzyme reactions for condensation of acetone and formyl-CoA was comprised of 100 mM KPi pH 7.4, 10 mM MgCl2, 0.15 mM TPP, 4 mM NADH, 2 mM acetyl-CoA, 1 μM ApbHACL, 2 μM CaAbfT, 50 mM formate and 200 mM acetone. The mixture was incubated at 30° C. for 3 min, and then 1 μM ACR and 1 μM FucO was added, and then the reactions were incubated at 30° C. for another 5 min unless otherwise specified. 2 μL of 10 M NaOH was added to 45 μL mixture for 30 min, followed by 3 μL 10 N H2SO4, and then applied for HPLC analysis as described above.

glyoxylate = assay: Growth-coupled selection of alanine dehydrogenases in glycine auxotroph strain; format: cell-based, E. coli; details: glycolate instead of glycine supplementation

Question: Which results are given for `CC(C)(O)C(=O)O` [2HIB, 2-hydroxyisobutyric acid]?
Answer: 2HIB concentration at which AC440 is still able to grow and maintain metabolic activity (AC440): 75 g/L; 2HIB concentration at which impact on growth could be observed (AC440): 25 g/L

B1: OfFrc: acyl-CoA transferase (ACT), Oxalobacter formigenes, Uniprot O06644 (protein, UniProt O06644 2-428, looked up)
Formyl-CoA:oxalate …: TKPLDGINVLDFTHVQAGPACTQMMGFLGANVIKIERRGSGDMTRGWLQDKPNVDSLYFTMFNCNKRSIELDMKTPEGKELLEQMIKKADVMVENFGPGALDRMGFTWEYIQELNPRVILASVKGYAEGHANEHLKVYENVAQCSGGAAATTGFWDGPPTVSGAALGDSNSGMHLMIGILAALEMRHKTGRGQKVAVAMQDAVLNLVRIKLRDQQRLERTGILAEYPQAQPNFAFDRDGNPLSFDNITSVPRGGNAGGGGQPGWMLKCKGWETDADSYVYFTIAANMWPQICDMIDKPEWKDDPAYNTFEGRVDKLMDIFSFIETKFADKDKFEVTEWAAQYGIPCGPVMSMKELAHDPSLQKVGTVVEVVDEIRGNHLTVGAPFKFSGFQPEITRAPLLGEHTDEVLKELGLDDAKIKELHAKQVV
Question: Which “performance on formate activation (2HIB)” value (formate) does the source give for B1 here?
Answer: better performance

B2: StEutE: acyl-CoA reductase, Salmonella typhymurium, Uniprot P41793 (protein, UniProt P41793 1-467, looked up)
Acetaldehyde dehydrogenase …: MNQQDIEQVVKAVLLKMKDSSQPASTVHEMGVFASLDDAVAAAKRAQQGLKSVAMRQLAIHAIREAGEKHARELAELAVSETGMGRVDDKFAKNVAQARGTPGVECLSPQVLTGDNGLTLIENAPWGVVASVTPSTNPAATVINNAISLIAAGNSVVFAPHPAAKKVSQRAITLLNQAVVAAGGPENLLVTVANPDIETAQRLFKYPGIGLLVVTGGEAVVDAARKHTNKRLIAAGAGNPPVVVDETADLPRAAQSIVKGASFDNNIICADEKVLIVVDSVADELMRLMEGQHAVKLTAAQAEQLQPVLLKNIDERGKGTVSRDWVGRDAGKIAAAIGLNVPDQTRLLFVETPANHPFAVTEMMMPVLPVVRVANVEEAIALAVQLEGGCHHTAAMHSRNIDNMNQMANAIDTSIFVKNGPCIAGLGLGGEGWTTMTITTPTGEGVTSARTFVRLRRCVLVDAFRIV
Question: For B2, which “performance in isobutene glycol production” value (2-hydroxyisobutyryl-CoA) is on record?
Answer: best performance

B3: BsAld: alanine dehydrogenase from Bacillus subtilis, Uniprot Q08352 (protein, UniProt Q08352 1-378, looked up)
Alanine dehydrogenase: MIIGVPKEIKNNENRVALTPGGVSQLISNGHRVLVETGAGLGSGFENEAYESAGAEIIADPKQVWDAEMVMKVKEPLPEEYVYFRKGLVLFTYLHLAAEPELAQALKDKGVTAIAYETVSEGRTLPLLTPMSEVAGRMAAQIGAQFLEKPKGGKGILLAGVPGVSRGKVTIIGGGVVGTNAAKMAVGLGADVTIIDLNADRLRQLDDIFGHQIKTLISNPVNIADAVAEADLLICAVLIPGAKAPTLVTEEMVKQMKPGSVIVDVAIDQGGIVETVDHITTHDQPTYEKHGVVHYAVANMPGAVPRTSTIALTNVTVPYALQIANKGAVKALADNTALRAGLNTANGHVTYEAVARDLGYEYVPAEKALQDESSVAGA
Question: For B3, which “growth of glycine auxotroph strain with glycolate” value (glyoxylate) is on record?
Answer: started to grow
